Reference: patent publication US20160052980A1, “CRP40 FRAGMENTS FOR THE TREATMENT OF NEUROLOGICAL DISORDERS” (CRP40 INC., priority 2013, published 2016)
“Also recorded” adds a separate entry of the source.

B1: HSP47: heat shock protein 47, a 47 kDa collagen-specific chaperone used as negative control (protein, UniProt P50454 19-418, looked up)
Serpin H1: AEVKKPAAAAAPGTAEKLSPKAATLAERSAGLAFSLYQAMAKDQAVENILVSPVVVASSLGLVSLGGKATTASQAKAVLSAEQLRDEEVHAGLGELLRSLSNSTARNVTWKLGSRLYGPSSVSFADDFVRSSKQHYNCEHSKINFRDKRSALQSINEWAAQTTDGKLPEVTKDVERTDGALLVNAMFFKPHWDEKFHHKMVDNRGFMVTRSYTVGVMMMHRTGLYNYYDDEKEKLQIVEMPLAHKLSSLIILMPHHVEPLERLEKLLTKEQLKIWMGKMQKKAVAISLPKGVVEVTHDLQKHLAGLGLTEAIDKNKADLSRMSGKKDLYLASVFHATAFELDTDGNPFDQDIYGREELRSPKLFYADHPFIFLVRDTQSGSLLFIGRLVRPKGDKMRDEL
B2: CRP40: SEQ ID NO:1, full-length human catecholamine-regulated protein, 40 kDa molecular chaperone, splice variant of mortalin (protein, listed as Homo sapiens)
chain: MDSSGPKHLNMKLTRAQFEGIVTDLIRRTIAPCQKAMQDAEVSKSDIGEVILVGGMTRMPKVQQTVQDLFGRAPSKAVNPDEAVAIGAAIQGGVLAGDVTDVLLLDVTPLSLGIETLGGVFTKLINRNTTIPTKKSQVFSTAADGQTQVEIKVCQGEREMAGDNKLLGQFTLIGIPPAPRGVPQIEVTFDIDANGIVHVSAKDKGTGREQQIVIQSSGGLSKDDIENMVKNAEKYAEEDRRKKERVEAVNMAEGIIHDTETKMEEFKDQLPADECNKLKEEISKMRELLARKDSETGENIRQAASSLQQASLKLFEMAYKKMASEREGSGSSGTGEQKEDQKEEKQ
B3: P1P3: SEQ ID NO:2, P1P3 fragment of human CRP40 (11.1 kDa) (protein, listed as Homo sapiens)
chain: MDSSGPKHLNMKLTRAQFEGIVTDLIRRTIAPCQKAMQDAEVSKSDIGEVILVGGMTRMPKVQQTVQDLFGRAPSKAVNPDEAVAIGAAIQGGVLA
B4: P1P5: SEQ ID NO:4, P1P5 fragment of human CRP40 (27 kDa) (protein, listed as Homo sapiens)
chain: MDSSGPKHLNMKLTRAQFEGIVTDLIRRTIAPCQKAMQEVSKSDIGEVILVGGMTRMPKVQQTVQGLFGRAPSKAVNPDEAVAIGAAIQGGVLAGDVTDVLLLDVTPLSLGIETLGGVFTKLINRNTTIPTKKSQVFSTAADGQTQVEIKVCQGEREMAGDNKLLGQFTLIGIPPAPRGVPQIEVTFDIDANGIVHVSAKDKGTGRERQIVIQSSGGLSKDDIEENMVKNAEKYAEEDRRKKERV

Key:
6-OHDA rats = experiment: 6-OHDA rat model, apomorphine-induced rotational behaviour; assay type: in vivo; conditions: injection in left striatum; apomorphine 0.5 mg/kg s.c.; rotations counted over 10 minutes; versus controls
Experimental: 6-Hydroxydopamine (or 6-OHDA) animal model of dyskinesia and oxidative stress: The 6-OHDA model was chosen for this study as this model is characterized by oxidative stress and degeneration of DA neurons, similar to the condition in human idiopathic PD patients and is a well-known preclinical animal model of PD.
6-OHDA animals, male Sprague-Dawley rats from Charles River (Raleigh, N.C., USA), were prepared by hemi-lateral lesioning of the A9 dopaminergic pathway by injecting 6-OHDA toxin in the substantia nigra par compacta (SNc) region of the rat brain. This unilateral nigrostriatal degeneration cause assymetry in motor behaviours due to imbalanced dopimanergic activity between striata. […] Baseline rotational behavior and locomoter testing were performed before surgical intervention.
The protocol for lesioning is synonymous with our 6-OHDA stereotaxic injection protocol found in Modi et al., (1996). Rats were sent to the McMaster University animal facility and allowed to acclimatize to the colony room for 1 week following arrival. Each rat was handled by the same researcher daily for 7 days before the start of the experiment. Animals were then tested for baseline apomorphine-induced rotations (tested during light hours), and locomotor activity (tested during dark hours) under apomorphine challenge treatment. Animals were then split into groups and injected with CRP40, CRP40 fragments and peptides, and controls. Animals were housed and tested in compliance with the guidelines described in the Guide to the Care and Use of Experimental Animals (Canadian Council on Animal Care, 1984; 1993).
6-OHDA rats were injected in the left striatum with one of the various fragments via stereotaxic surgery. […] Coordinates for striatal injections of treatment are as follows: A/P +0.7 mm, M/L +3.0 mm, and D/V −5.0 mm. A 25 μl Hamilton syringe with a 22 gauge 2 inch blunt needle was used to inject treatments at a rate of 1 μl/min.
Apomorphine injection causes full body rotational behaviour in the direction contralateral to the 6-OHDA lesion. The total number of rotations per fixed time period is used as a measure of improving or worsening symptomology. A holding chamber in which the animal is confined to a circular shaped floor is used to count rotations, as this is an optimal arrangement for these experiments compared to an open field box. 0.5 mg/ml Apomorphine (Sigma: A4393) was dissolved in 0.9% saline with 0.1% ascorbic acid. Animals were injected subcutaneously with apomorphine (0.5 mg/kg body weight). Animals were placed in a clear plastic cylindrical holding tank and allowed 5 minutes for habituation. Following habituation, 10 minutes was allotted and a cell counter was used to record the number of rotations.

[1] = Competitive radioligand binding of [3H]-DA in the presence of cold DA; conditions: 1 nM radioligand, 10 μg protein, range of unlabeled DA
Experimental: (§1) Methods. The ability of cold DA to displace bound tritiated dopamine ([3H]-DA) in CRP40, P2P4, or heat-shock protein 47 (a control heat-shock protein that plays a role in collagen synthesis) was assessed by competitively binding [3H]-DA in the presence of different concentrations of unlabeled DA or apomorphine (in 0.1% ascorbic acid) using the same methodology as in (Gabriele et al., 2009). […] At the end of incubation, the bound and free ligands were separated by vacuum filtration through Whatman GF/B filters. The filters were washed with 3×5 ml of Tris-EDTA buffer and the radioactive counts were determined on a Beckman scintillation counter. The Assay Buffer was prepared by adding the following components to 500 ml of double distilled water: 25 ml 1M Tris-HCl (pH 8; 50 mM), […] (1 mM), 100 mM PMSF in ethanol (0.1 mM), 0.508 g MgCl2·6H2O (5 mM), 0.0077 g DTT (0.1 mM), 0.050 g Bacitracin (100 μg/ml), and 0.0025 g
(§2) Soybean Trypsin (5 μg/ml). The final pH was adjusted to 7.4. The filtration Buffer was prepared by adding the following components to 2 L of double distilled water: 100 ml 1M Tris-HCl (pH 8; 50 mM), and 4 ml 500 mM EDTA (1 mM). The final pH was adjusted to 7.4. Statistical analysis of the data was performed utilizing Graph Pad Prism 6.0 software. […]

[2] = Competitive radioligand binding of [3H]-DA in the presence of cold apomorphine; conditions: 1 nM radioligand, 10 μg protein, range of unlabeled apomorphine
Experimental: as §1, §2

SH-SY5Y cells [3] = experiment: OxiSelect Intracellular ROS Assay, H2O2-induced oxidative stress in transfected cells; assay type: cell-based; conditions: overexpression in transfected SH-SY5Y cells; 500 μM H2O2; normal cells had increased ROS
Experimental: The ability of CRP40- and mortalin-transfected SH-SY5Y cells to protect against the harmful effects of mitochondrial ROS in comparison to normal non-transfected SH-SY5Y cells was measured using the OxiSelect™ Intracellular ROS Assay Kit (Green Fluorescence). H2O2 treatment was used to induce oxidative stress in the assay. Increased fluorescence in this assay corresponded to greater ROS levels.

SH-SY5Y cells [4] = experiment: ATP-Glo Bioluminometric Cell Viability Assay with MG-132 proteasomal inhibitor; assay type: cell-based; conditions: for preservation of ATP levels and cell viability under proteasomal stress: overexpression in SH-SY5Y cells, MG-132; for cell viability in basal condition versus normal non-transfected SH-SY5Y cells: no MG-132, p<0.0001
Description: The ability of CRP40- and mortalin-transfected SH-SY5Y cells to maintain mitochondrial homeostasis, specifically energy production and ATP levels, was examined using the ATP-Glo™ Bioluminometric Cell Viability Assay Kit. MG-132 was used to inhibit proteasomal function and cause increased oxidative stress, which would compromise mitochondrial function, as well as the processes of energy production. The quantitation of ATP levels was thus used as a measure of cell viability.
FIG. 7 summarizes the results of the adenosine triphosphate assays. […] Mortalin was used as a positive control in this assay. […] The data are representative of mean±S.D. of experiments for each condition performed twice, in triplicate.

Molecule	rotational behaviour in the 6-OHDA rat model (6-OHDA rats)	specific binding of [3H]-DA in competition with cold DA (dopamine binding) [1]	specific binding of [3H]-DA in competition with cold apomorphine (apomorphine binding) [2]	ROS levels under oxidative stress versus normal non-transfected SH-SY5Y cells (SH-SY5Y cells [3])	preservation of ATP levels and cell viability under proteasomal stress (SH-SY5Y cells [4])	cell viability in basal condition versus normal non-transfected SH-SY5Y cells (SH-SY5Y cells [4])
P2P4: SEQ ID NO:5, 60-amino acid fragment spanning amino acids 95-154 of full-length CRP40 (6.6 kDa)	reduction of rotational behavior; also recorded: alleviate rotational symptoms; also recorded: as effective as full-length CRP40	does not bind dopamine at all	does not bind; also recorded: do not bind apomorphine	–	–	–
mortalin: ubiquitously expressed molecular chaperone of 649 amino acids encoded by HSPA9B; positive control in the ATP assay [reference compound]	–	–	–	partially preserves mitochondrial homeostasis and ROS levels	helps to maintain intracellular ATP levels and energy production; also recorded: partially preserve ATP levels and cell viability	significantly lower
B1	does not elicit a correction of rotational behaviour	–	–	–	–	–
B2	alleviate rotational symptoms; also recorded: could correct movement impairments	binds DA with high capacity and low affinity; also recorded: binds dopamine with high capacity and low affinity	binds apomorphine; also recorded: binds dopamine	partially preserves mitochondrial homeostasis and ROS levels	helps to maintain intracellular ATP levels and energy production; also recorded: partially preserve ATP levels and cell viability	significantly lower
B3	not effective	–	–	–	–	–
B4	reduction of rotational behavior; also recorded: effective	–	–	–	–	–
